Measurements reported in US12365732 (23ANDME, dated 2025).
Each block holds one binder with its values, some of them ahead of it.

What was measured:
[1] = biological target: T1, hu-CD96 isoform 1 on HEK293T cells (human, UniProt P40200 22-585); assay: FACS, Ab 50 nM
T1 construct: Origene RC213845, transient expression; also called HEK293T-CD96 (iso1)
T1 sequence: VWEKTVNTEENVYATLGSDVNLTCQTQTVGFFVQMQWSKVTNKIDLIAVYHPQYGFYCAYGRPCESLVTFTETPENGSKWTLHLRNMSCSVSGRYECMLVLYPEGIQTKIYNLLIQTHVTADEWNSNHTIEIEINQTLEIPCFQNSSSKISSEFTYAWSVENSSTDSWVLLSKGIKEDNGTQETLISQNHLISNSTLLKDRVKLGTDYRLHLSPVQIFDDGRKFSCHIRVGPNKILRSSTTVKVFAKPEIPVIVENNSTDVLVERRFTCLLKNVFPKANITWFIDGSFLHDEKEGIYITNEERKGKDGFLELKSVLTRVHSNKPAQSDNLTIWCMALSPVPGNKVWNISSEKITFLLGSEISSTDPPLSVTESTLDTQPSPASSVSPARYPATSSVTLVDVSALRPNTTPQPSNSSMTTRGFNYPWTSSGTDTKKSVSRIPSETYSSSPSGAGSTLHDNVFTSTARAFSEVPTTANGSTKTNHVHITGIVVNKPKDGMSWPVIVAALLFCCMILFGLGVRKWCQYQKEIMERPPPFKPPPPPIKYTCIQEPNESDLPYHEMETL
Protocol: (§1) Isoform 1 of hu-CD96 (Origene, catalog #RC213845) was transiently expressed in HEK293T cells following standard lipofectamine or Fugene transfection protocol. […] Cells were washed, and binding was detected by incubation with anti-mouse IgG-FITC (Biolegend, catalog #406001) for 20 minutes at 4° C. Cell binding was analyzed by flow cytometry with a CytoFLEX (Beckman Coulter). Binding curves were calculated as a percentage of cells positive for bound antibody.

[2] = biological target: T2, hu-CD96 isoform 2 on CHO cells (human, UniProt P40200 22-585); assay: FACS, Ab 0.08 nM
T2 construct: also called CHO-CD96 (isoform 2); CD96-CHOs
T2 sequence: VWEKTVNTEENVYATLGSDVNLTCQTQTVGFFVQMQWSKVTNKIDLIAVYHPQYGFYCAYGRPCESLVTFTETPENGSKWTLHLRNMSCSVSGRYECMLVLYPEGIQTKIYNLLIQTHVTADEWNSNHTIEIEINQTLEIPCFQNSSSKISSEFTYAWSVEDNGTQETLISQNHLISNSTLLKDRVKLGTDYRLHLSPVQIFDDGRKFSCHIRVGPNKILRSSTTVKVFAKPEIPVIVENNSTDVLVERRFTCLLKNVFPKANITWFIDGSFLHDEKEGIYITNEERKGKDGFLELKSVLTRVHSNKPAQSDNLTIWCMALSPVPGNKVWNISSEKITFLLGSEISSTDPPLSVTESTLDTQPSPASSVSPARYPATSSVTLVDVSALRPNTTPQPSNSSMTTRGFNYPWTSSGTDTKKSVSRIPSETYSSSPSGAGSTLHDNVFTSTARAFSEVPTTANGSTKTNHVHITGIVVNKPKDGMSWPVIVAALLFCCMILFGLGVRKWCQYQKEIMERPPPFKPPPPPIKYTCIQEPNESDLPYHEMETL
Protocol: as §1
Isoform 2 of hu-CD96 (DNA construct: Origene, catalog #RC221005) was expressed on a single-cell-clone-derived CHO stable cell line. Binding of the anti-CD96 antibodies to the CHO cells were determined as described above with isoform 1 of hu-CD96.

% positive [1]: 57.8%
% positive [2]: 3.1%
B1: 9H4, purified hybridoma antibody (antibody, V domains shown)
VH: EVQLLETGGGLVKSGGSLKLSCAASGFTFSDYYMYWVRQTPEKRLEWVAAISDDGTYTYYPDSVKGRFTISRDNANNYLYLQMSSLKSEDTAIYYCAKAGSYDYFDVWGAGTTVTVSS
VL: DIVLTQSPASLAVSLGQRAIISCKASQSVTFADTGLMHWYQQKPGQQPKLLIYRASNLEVGVPTRFSGSGSGTDFTLNIHPVEEEDVATYYCQQSREYPWTFGGGTKLEIK
notes: murine hybridoma IgG

% positive [1]: 61%
% positive [2]: 1.4%
B2: mAb1.v7 IgG (humanized 12F8) (antibody, V domains shown)
VH: EVQLVQSGAEVKKPGASVKVSCKASGFTFTNNWMHWVRQAPGQGLEWIGMIHPNSGITNINEKFKNRVTMTTDTSTSTAYMELRSLRSEDTAVYYCRSDGTYEGYFDYWGQGTLVTVSS
VL: DIQLTQSPSSLSASVGDRVTITCKASQNVGTAIVWYQQKPGKAPKVLIYSASTRYTGVPSRFSGSGSGTDFTLTISSLQPEDFATYYCQQYSSSPLTFGQGTKVEIKG
notes: human IgG1 N297G

% positive [1]: 52.1%
% positive [2]: 24.6%
B3: 7E5, purified hybridoma antibody (antibody, V domains shown)
VH: QVQLKESGPGLVAPSQSLSIICTVSGFSLTNYGIHWIRQPPGKGLEWLGIIWAGGSTNYNSALMSRLTISKDNSKSQVFLKMNSLQTNDTAIYYCARVSMMGFAYWGQGTLVTVSA
VL: QAVVTQESALTTSPGETVTLTCRSSTGAVTTSNYANWVQEKPDHLFTGLIGGTNNRAPGVPARFSGSLIGDKAALTITGAQTEDEAIYFCSLWYGSHWVFGGGTKLTVL
notes: murine hybridoma IgG
